Patent US20100330072A1 (published 2010)
Numbering of substitutions follows the chain as printed.

T1: recombinant mature myostatin (human, produced in E. coli) (human, UniProt O14793 267-375)
T1 construct: mature; also called GDF-8
T1 sequence (looked up): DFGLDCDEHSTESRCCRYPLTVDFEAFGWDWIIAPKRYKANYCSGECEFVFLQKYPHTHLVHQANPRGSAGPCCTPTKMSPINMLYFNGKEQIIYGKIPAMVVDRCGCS

B1: 2x mTN8-19-21 peptibody (Fc fusion)
chain: GGGGGAQSEYQGLCTRWPWMCPPQGWKLEGSGSATGGSGSTASSGSGSATGSEYQGLCTRWPWMCPPQGWKLE
notes: Fc dimer
B2: 2x mTN8-19-33 peptibody (Fc fusion)
chain: B1 chain with S8P, Y10S, L13H, K27G, S52P, Y54S, L57H, K71G
notes: Fc dimer; also called 2×mTN8-19-33
B3: 2x mTN8-19-7 peptibody (Fc fusion)
chain: GGGGGAQLADHGQCIRWPWMCPPEGWELEGSGSATGGSGSTASSGSGSATGLADHGQCIRWPWMCPPEGWELE
notes: Fc dimer; also called 2×mTN8-19-7

Biological target: T1, recombinant mature myostatin (human, …)
Experiment: KinExA solution equilibrium assay or BIAcore (table does not say which)

Point of comparison: B1, Kd 6 pM. Against it:
- B2 — 2-fold lower, 3 pM
- B3 — 2-fold higher, 12 pM
